For one test, the target named is T1, PPARγ2 S273A mutant (Homo sapiens, UniProt P37231, S273A).
T1 construct: expressed in transfected cells; host or cells: HEK-293T
T1 sequence (P37231 1-505 S273A): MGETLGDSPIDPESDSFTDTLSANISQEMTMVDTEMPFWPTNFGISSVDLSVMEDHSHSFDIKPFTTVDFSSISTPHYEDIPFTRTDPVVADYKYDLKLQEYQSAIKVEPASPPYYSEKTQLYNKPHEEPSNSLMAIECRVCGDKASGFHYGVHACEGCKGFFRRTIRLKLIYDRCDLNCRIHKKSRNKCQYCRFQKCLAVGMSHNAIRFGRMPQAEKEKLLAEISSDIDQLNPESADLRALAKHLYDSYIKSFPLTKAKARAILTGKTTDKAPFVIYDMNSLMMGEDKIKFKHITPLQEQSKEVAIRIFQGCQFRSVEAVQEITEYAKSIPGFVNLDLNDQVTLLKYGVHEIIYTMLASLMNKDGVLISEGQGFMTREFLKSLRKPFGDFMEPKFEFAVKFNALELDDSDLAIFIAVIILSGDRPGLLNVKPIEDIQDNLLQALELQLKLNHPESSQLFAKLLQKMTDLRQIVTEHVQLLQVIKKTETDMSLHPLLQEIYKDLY
Put plainly: GST-pull down assay with PPARγ2 S112A and S273A mutants (HEK-293T). Particulars: FIG. 4A, 4B. It counts as binding. The protocol: 14-3-3 proteins are known to bind to phosphorylated residues of a target protein. Phosphorylated residues associated with the activity of PPARγ2 are known to be serine 112 and serine 273. Thus, PPARγ2 mutants (PPARγ2 S112A and S273A) with non-phosphorylated serine 112 and serine 273 residues were produced and binding thereof with 14-3-3 proteins was verified through GST-pull down assay.
HEK-293T cells were seeded in a 100 mm plate at a density of 2×10^6 cells per each well, and then transfected with Flag-PPARγ2 (WT) DNA (4 μg), Flag-PPARγ2 (S112A) DNA (4 μg), Flag-PPARγ2(S273A) DNA (4 μg), and mGST-14-3-3β (4 μg) or mGST-14-3-3γ (4 μg) using an E-fection plus reagent (Lugen). As for Flag-PPARγ2 (S112A) DNA and Flag-PPARγ2 (S273A) DNA, DNA fragments amplified through polymerase chain reaction (PCR) were cloned into a Flag-tagged vector. A ratio of DNA to the E-fection plus reagent was 1:2, and this method was performed according to a manufacturer's manual. The corresponding cells were washed with ice-cold PBS and lysed using 500 μl/well of a lysis buffer (150 mM NaCl, 1 mM EDTA, 1% Nonidet P-40, 5% glycerol, 25 mM tris-HCl, pH 7.5, protease inhibitor added), and the lysed cells were centrifuged at 10,000×g and 4° C. for 10 minutes to extract proteins. […]

For the next test, the target named is T2, 14-3-3γ and PPARγ2 (Homo sapiens, UniProt P37231).
T2 construct: expressed in transfected cells; host or cells: HEK-293T
T2 sequence (P37231 1-505): T1 sequence (P37231 1-505 S273A) with A273S
T2 sequence (P31946 1-246 partner): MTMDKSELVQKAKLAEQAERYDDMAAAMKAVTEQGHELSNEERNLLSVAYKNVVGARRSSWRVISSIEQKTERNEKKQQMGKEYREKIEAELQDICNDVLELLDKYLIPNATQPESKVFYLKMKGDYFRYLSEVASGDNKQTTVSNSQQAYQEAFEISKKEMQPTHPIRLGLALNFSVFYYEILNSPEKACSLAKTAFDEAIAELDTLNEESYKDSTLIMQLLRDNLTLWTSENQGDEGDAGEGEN
Put plainly: Competitive GST-pull down assay, 14-3-3γ / PPARγ2 binding under 14-3-3β overexpression. Particulars: as expression amount of 14-3-3β was increased (HA-14-3-3β DNA 2 and 4 μg); 10 μM pioglitazone; FIG. 5B. The protocol: From the previous experimental results, it was verified that 14-3-3β and 14-3-3γ were bound to the phosphorylated serine 273 residue of PPARγ2, and it was determined that the two proteins would competitively bind to the same residue. Thus, GST-pull down assay was carried out to verify competitive binding of 14-3-3β and 14-3-3γ with PPARγ2.
HEK-293T cells were seeded in a 100 mm plate at a density of 2×10^6 cells per each well, and then transfected with mGST-PPARγ2DNA (4 μg), GFP-14-3-3β DNA (4 μg) or GFP-14-3-3γ DNA (4 μg), and HA-14-3-3β DNA (2 and 4 μg) or HA-14-3-3γ DNA (2 and 4 μg) using an E-fection plus reagent (Lugen). A ratio of DNA to the E-fection plus reagent was 1:2 and this method was performed according to a manufacturer's manual. After transfection, the corresponding cells were treated with 10 μM of pioglitazone (Pio, Santa Cruz) for 24 hours, washed with ice-cold PBS, and lysed using 500 μl/well of a lysis buffer (150 mM NaCl, 1 mM EDTA, 1% Nonidet P-40, 5% glycerol, 25 mM tris-HCl, pH 7.5, protease inhibitor added), and the lysed cells were centrifuged at 10,000×g and 4° C. for 10 minutes to extract proteins. […]

Numbering of substitutions follows the chain as printed.

For the substance “14-3-3β: 14-3-3 isoform protein, overexpressed by DNA transfection; regulating factor that increases transcriptional activity of PPARγ2”, the “binding with PPARγ2 S273A mutant” value with PPARγ2 S273A mutant is recorded as “suppressed”. The “binding between 14-3-3γ and PPARγ2” value with 14-3-3γ and PPARγ2 is on record as “reduced”.

Take “14-3-3γ: 14-3-3 isoform protein, overexpressed by DNA transfection; regulating factor that decreases transcriptional activity of PPARγ2”: the “binding with PPARγ2 S273A mutant” value with PPARγ2 S273A mutant is recorded as “suppressed”.
